From patent US20240309115A1 (MERUS N V, published 2024)

T1: human LAG-3 (293FF cell line stably transfected with human LAG-3) (human, UniProt P18627 23-525)
T1 construct: whole, on cells; also called huLAG-3; 293FF-huLAG-3
T1 sequence (looked up): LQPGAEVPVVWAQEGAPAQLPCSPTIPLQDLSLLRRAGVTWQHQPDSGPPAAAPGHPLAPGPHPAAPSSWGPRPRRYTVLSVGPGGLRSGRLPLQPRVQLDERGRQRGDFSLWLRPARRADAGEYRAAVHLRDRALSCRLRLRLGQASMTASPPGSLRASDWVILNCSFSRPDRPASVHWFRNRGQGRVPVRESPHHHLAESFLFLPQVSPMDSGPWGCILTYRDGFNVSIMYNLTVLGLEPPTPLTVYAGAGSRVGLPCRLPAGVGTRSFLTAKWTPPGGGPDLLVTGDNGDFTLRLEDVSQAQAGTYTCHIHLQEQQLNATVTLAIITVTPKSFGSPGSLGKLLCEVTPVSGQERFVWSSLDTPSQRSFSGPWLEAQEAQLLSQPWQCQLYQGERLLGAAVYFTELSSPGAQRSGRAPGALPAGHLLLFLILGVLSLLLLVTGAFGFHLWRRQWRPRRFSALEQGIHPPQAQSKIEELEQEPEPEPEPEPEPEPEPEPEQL

T2: LAG-3 on PD-1 and LAG-3 expressing Jurkat T cells (effector cells of the PD-1/LAG-3 reporter assay) (UniProt P18627 23-525)
T2 sequence (looked up): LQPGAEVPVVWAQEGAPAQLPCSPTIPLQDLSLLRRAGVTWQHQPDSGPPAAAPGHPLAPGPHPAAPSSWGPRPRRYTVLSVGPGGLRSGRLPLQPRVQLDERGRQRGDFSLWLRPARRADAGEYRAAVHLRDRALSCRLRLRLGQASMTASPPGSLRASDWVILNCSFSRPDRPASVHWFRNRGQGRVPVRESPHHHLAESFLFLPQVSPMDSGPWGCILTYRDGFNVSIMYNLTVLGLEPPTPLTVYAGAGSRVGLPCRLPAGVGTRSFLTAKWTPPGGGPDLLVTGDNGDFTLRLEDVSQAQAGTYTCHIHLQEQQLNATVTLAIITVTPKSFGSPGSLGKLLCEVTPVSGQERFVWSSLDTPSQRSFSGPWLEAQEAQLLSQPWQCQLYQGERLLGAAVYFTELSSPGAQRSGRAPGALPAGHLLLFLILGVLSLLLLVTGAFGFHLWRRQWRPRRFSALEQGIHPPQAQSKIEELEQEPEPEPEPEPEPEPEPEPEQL

T3: rhesus LAG-3 (293FF cell line stably transfected with rhesus LAG-3) (rhesus, UniProt A0A5F8A874 23-533)
T3 construct: whole, on cells; also called reLAG-3; 293FF-reLAG-3
T3 sequence: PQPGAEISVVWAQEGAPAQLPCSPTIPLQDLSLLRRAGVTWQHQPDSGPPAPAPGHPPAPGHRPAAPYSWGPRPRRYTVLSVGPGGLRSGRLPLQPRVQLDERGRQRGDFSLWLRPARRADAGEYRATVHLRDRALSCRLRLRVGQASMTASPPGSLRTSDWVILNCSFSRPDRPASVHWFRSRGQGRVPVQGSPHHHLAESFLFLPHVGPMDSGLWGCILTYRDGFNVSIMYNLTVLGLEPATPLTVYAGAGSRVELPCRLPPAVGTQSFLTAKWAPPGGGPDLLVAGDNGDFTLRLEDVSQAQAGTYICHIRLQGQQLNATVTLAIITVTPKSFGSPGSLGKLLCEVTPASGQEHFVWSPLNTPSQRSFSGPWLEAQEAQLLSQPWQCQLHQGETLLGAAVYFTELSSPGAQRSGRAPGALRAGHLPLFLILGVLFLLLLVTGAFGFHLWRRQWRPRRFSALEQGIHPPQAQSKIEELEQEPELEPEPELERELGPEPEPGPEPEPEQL


What was measured:
[1] = target: T1, human LAG-3 (293FF cell line stably …); assay: FACS on 293FF cells expressing human LAG-3
[2] = target: T4, PD-L1 on PD-L1 expressing Raji cells (target cells of the PD-1/LAG-3 reporter assay) (UniProt Q9NZQ7 19-290, limits assumed); assay: cell-based or functional assay
T4 sequence (Q9NZQ7 19-290 limits assumed): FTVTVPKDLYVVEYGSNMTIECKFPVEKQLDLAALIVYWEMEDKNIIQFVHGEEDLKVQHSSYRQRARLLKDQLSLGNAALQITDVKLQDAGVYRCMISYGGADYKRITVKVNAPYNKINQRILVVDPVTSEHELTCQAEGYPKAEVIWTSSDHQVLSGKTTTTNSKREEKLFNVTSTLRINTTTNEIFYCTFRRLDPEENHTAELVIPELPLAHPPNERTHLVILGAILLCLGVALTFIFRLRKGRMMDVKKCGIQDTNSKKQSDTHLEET

[3] = target: T2, LAG-3 on PD-1 and LAG-3 expressing …; assay: cell-based or functional assay
[4] = target: T5, human PD-L1 (CHO-K1 cell line stably transfected with human PD-L1) (human, UniProt Q9NZQ7 19-290); assay: FACS on CHO-K1 cells expressing human PD-L1
T5 construct: whole, on cells; also called huPD-L1; CHO-K1-huPD-L1
T5 sequence (Q9NZQ7 19-290): as the sequence (Q9NZQ7 19-290 limits assumed) above

[5] = target: T4, PD-L1 on PD-L1 expressing Raji cells …; assay: cell-based or functional assay; remark: listed apart in the source
[6] = target: T2, LAG-3 on PD-1 and LAG-3 expressing …; assay: cell-based or functional assay; remark: listed apart in the source
[7] = target: T3, rhesus LAG-3 (293FF cell line stably …); assay: FACS on 293FF-reLAG-3 cells
[8] = target: T1, human LAG-3 (293FF cell line stably …); assay: FACS on 293FF-huLAG-3 cells
[9] = target: T5, human PD-L1 (CHO-K1 cell line stably …); assay: FACS on CHO-K1-huPD-L1 cells
[10] = target: T6, rhesus PD-L1 (CHO-K1 cell line stably transfected with rhesus PD-L1) (rhesus, UniProt F6VEW6 19-290); assay: FACS on CHO-K1 cells stably expressing rhesus PD-L1, goat-anti-human PE secondary, MFI
T6 construct: whole, on cells

[11] = target: T7, cynomolgus monkey LAG-3-His (Sino Biological, Cat nr. 90841-C08H) (cynomolgus monkey); assay: SPR, BIAcore T200, antibody captured by anti-huIgG Fcγ on a CM5 chip, antigen in solution, 1:1 model
T7 construct: also called cynomolgus LAG-3

[12] = target: T3, rhesus LAG-3 (293FF cell line stably …); assay: FACS on 293FF cells stably expressing rhesus LAG-3, goat-anti-human PE secondary, MFI

Binder | EC50 [1] | AUC compared to control, PD-1/LAG-3 reporter assay (luciferase) [2] | AUC compared to control, PD-1/LAG-3 reporter assay (luciferase) [3] | EC50 [4] | other results
SEQ ID NO: 5×SEQ ID NO: 23 bispecific antibody (bispecific antibody, Fc-silenced IgG1, monovalent for LAG-3 and for PD-L1; also called PB19; not shown: IgG1 hinge) heavy (part 1 of 2) 1: QVQLQESGPGLVKPSETLSLTCTVSDDSISDYYWSWIRQPPGKGLEWIGYIYYSGNTKYNPSLKNRVTISVDTSKSQFSLKLTSVTAADTAVYYCARIPLTGEFDYWAQGTLVTVSSASTKGPSVFPLAPSSKSTSGGTAALGCLVKDYFPEPVTVSWNSGALTSGVHTFPAVLQSSGLYSLSSVVTVPSSSLGTQTYICNVNHKPSNTKVDKRV heavy (part 2 of 2) 1: not shown heavy (part 1 of 2) 2: not shown heavy (part 2 of 2) 2: not shown light: not shown | 8.64 nM | 83.9 relative to AUC of positive control | 83.9 relative to AUC of positive control | 1.21 nM | –
bivalent monospecific parental LAG-3 antibody SEQ ID NO: 5 (antibody, IgG1, IgG1; not shown: IgG1 hinge) heavy (part 1 of 2): QVQLQESGPGLVKPSETLSLTCTVSDDSISDYYWSWIRQPPGKGLEWIGYIYYSGNTKYNPSLKNRVTISVDTSKSQFSLKLTSVTAADTAVYYCARIPLTGEFDYWAQGTLVTVSSASTKGPSVFPLAPSSKSTSGGTAALGCLVKDYFPEPVTVSWNSGALTSGVHTFPAVLQSSGLYSLSSVVTVPSSSLGTQTYICNVNHKPSNTKVDKRV heavy (part 2 of 2): not shown light: not shown | 1.88 nM | – | – | – | –
SEQ ID NO: 52×SEQ ID NO: 20 bispecific antibody (bispecific antibody, IgG1; also called PB90; not shown: IgG1 hinge) heavy (part 1 of 2) 1: QVQLQESGPGLVKPSETLSLTCTVSDDSISDYYWSWIRQPPGKGLEWIGYIYYSGNTKYNPSLKNRVTISVDTSKSQFSLKLTSVTAADTAVYYCARIPLTGDFDFWAQGTLVTVSSASTKGPSVFPLAPSSKSTSGGTAALGCLVKDYFPEPVTVSWNSGALTSGVHTFPAVLQSSGLYSLSSVVTVPSSSLGTQTYICNVNHKPSNTKVDKRV heavy (part 2 of 2) 1: not shown heavy (part 1 of 2) 2: not shown heavy (part 2 of 2) 2: not shown light: not shown | – | – | – | – | AUC (% of control), PD-1/LAG-3 reporter assay [5]: 96.9 % of control; EC50, PD-1/LAG-3 reporter assay [5]: 1.15 µg/mL; AUC (% of control), PD-1/LAG-3 reporter assay [6]: 96.9 % of control; EC50, PD-1/LAG-3 reporter assay [6]: 1.15 µg/mL; EC50 [7]: 3.22 µg/mL; EC50 [8]: 1.25 µg/mL; EC50 [9]: 0.009 µg/mL
SEQ ID NO: 1×SEQ ID NO: 23 bispecific antibody (bispecific antibody, Fc-silenced IgG1, monovalent for LAG-3 and for PD-L1; also called PB3; not shown: IgG1 hinge) heavy (part 1 of 2) 1: QVQLQESGPGLVRPSETLSLTCTVSGGSISSYSWSWIRQPPGKGLEWIGYIDYSGSTNYNPSLKSRVTISVDTSKTQFSLKLSSVSAADTAVYYCAKDLLYKWNYVEGFDIWGQGTTVTVSSASTKGPSVFPLAPSSKSTSGGTAALGCLVKDYFPEPVTVSWNSGALTSGVHTFPAVLQSSGLYSLSSVVTVPSSSLGTQTYICNVNHKPSNTKVDKRV heavy (part 2 of 2) 1: not shown heavy (part 1 of 2) 2: not shown heavy (part 2 of 2) 2: not shown light: not shown | 52.1 nM | 54.8 relative to AUC of positive control | 54.8 relative to AUC of positive control | 0.74 nM | EC50 (read off the curve) [10]: ~0.05 µg/mL
bivalent monospecific parental LAG-3 antibody SEQ ID NO: 1 (antibody, IgG1, IgG1; not shown: IgG1 hinge) heavy (part 1 of 2): QVQLQESGPGLVRPSETLSLTCTVSGGSISSYSWSWIRQPPGKGLEWIGYIDYSGSTNYNPSLKSRVTISVDTSKTQFSLKLSSVSAADTAVYYCAKDLLYKWNYVEGFDIWGQGTTVTVSSASTKGPSVFPLAPSSKSTSGGTAALGCLVKDYFPEPVTVSWNSGALTSGVHTFPAVLQSSGLYSLSSVVTVPSSSLGTQTYICNVNHKPSNTKVDKRV heavy (part 2 of 2): not shown light: not shown | 0.54 nM | – | – | – | –
relatlimab analog (antibody, V domains shown, also called analog of anti-LAG-3 antibody relatlimab) VH: QVQLQQWGAGLLKPSETLSLTCAVYGGSFSDYYWNWIRQPPGKGLEWIGEINHRGSTNSNPSLKSRVTLSLDTSKNQFSLKLRSVTAADTAVYYCAFGYSDYEYNWFDPWGQGTLVTVSS VL: EIVLTQSPATLSLSPGERATLSCRASQSISSYLAWYQQKPGQAPRLLIYDASNRATGIPARFSGSGSGTDFTLTISSLEPEDFAVYYCQQRSNWPLTFGQGTNLEIK | – | – | – | – | Kd [11]: 11.5 nM
SEQ ID NO: 15×SEQ ID NO: 23 bispecific antibody (bispecific antibody, Fc-silenced IgG1, monovalent for LAG-3 and for PD-L1; also called PB59; not shown: IgG1 hinge) heavy (part 1 of 2) 1: QVQLVQSGAEVKKPGASVKVSCKASGYTFTSYGISWVRQAPGQGLEWMGWISAYSGNTNYAQKLQGRVTMTTDTSTSTAYMELRSLRSDDTAVYYCARDGSGWDDFDYWGQGTLVTVSSASTKGPSVFPLAPSSKSTSGGTAALGCLVKDYFPEPVTVSWNSGALTSGVHTFPAVLQSSGLYSLSSVVTVPSSSLGTQTYICNVNHKPSNTKVDKRV heavy (part 2 of 2) 1: not shown heavy (part 1 of 2) 2: not shown heavy (part 2 of 2) 2: not shown light: not shown | 113 nM | 71 relative to AUC of positive control | 71 relative to AUC of positive control | 2.41 nM | –
bivalent monospecific parental LAG-3 antibody SEQ ID NO: 15 (antibody, IgG1, IgG1; not shown: IgG1 hinge) heavy (part 1 of 2): QVQLVQSGAEVKKPGASVKVSCKASGYTFTSYGISWVRQAPGQGLEWMGWISAYSGNTNYAQKLQGRVTMTTDTSTSTAYMELRSLRSDDTAVYYCARDGSGWDDFDYWGQGTLVTVSSASTKGPSVFPLAPSSKSTSGGTAALGCLVKDYFPEPVTVSWNSGALTSGVHTFPAVLQSSGLYSLSSVVTVPSSSLGTQTYICNVNHKPSNTKVDKRV heavy (part 2 of 2): not shown light: not shown | 0.94 nM | – | – | – | EC50 (read off the curve) [12]: ~0.6 µg/mL
SEQ ID NO: 16×SEQ ID NO: 23 bispecific antibody (bispecific antibody, Fc-silenced IgG1, monovalent for LAG-3 and for PD-L1; also called PB63; not shown: IgG1 hinge) heavy (part 1 of 2) 1: QVQLVQSGAEVKKPGASVKVSCKASGYTFTSYGISWVRQAPGQGLEWMGWISAYSGNTNYAQKLQGRVTMTTDTSTSTAYMELRSLRSDDTAVYYCARGSILAAQMWGDIWGQGTLVTVSSASTKGPSVFPLAPSSKSTSGGTAALGCLVKDYFPEPVTVSWNSGALTSGVHTFPAVLQSSGLYSLSSVVTVPSSSLGTQTYICNVNHKPSNTKVDKRV heavy (part 2 of 2) 1: not shown heavy (part 1 of 2) 2: not shown heavy (part 2 of 2) 2: not shown light: not shown | 24.1 nM | 58.3 relative to AUC of positive control | 58.3 relative to AUC of positive control | 1.01 nM | –
bivalent monospecific parental LAG-3 antibody SEQ ID NO: 16 (antibody, IgG1, IgG1; not shown: IgG1 hinge) heavy (part 1 of 2): QVQLVQSGAEVKKPGASVKVSCKASGYTFTSYGISWVRQAPGQGLEWMGWISAYSGNTNYAQKLQGRVTMTTDTSTSTAYMELRSLRSDDTAVYYCARGSILAAQMWGDIWGQGTLVTVSSASTKGPSVFPLAPSSKSTSGGTAALGCLVKDYFPEPVTVSWNSGALTSGVHTFPAVLQSSGLYSLSSVVTVPSSSLGTQTYICNVNHKPSNTKVDKRV heavy (part 2 of 2): not shown light: not shown | 13.3 nM | – | – | – | –
